Experimental data from paper PMC3548785.

Target: His-ASF/SF2 (UniProt Q07955)
Assay: intrinsic tryptophan fluorescence quenching
Conditions: 100 mM KCl, 20 mM Tris-HCl pH 7.5, room temperature, 100 nM His-ASF/SF2, excitation 280 nm, emission 340 nm

Chain of His-ASF/SF2 (Q07955 whole entry): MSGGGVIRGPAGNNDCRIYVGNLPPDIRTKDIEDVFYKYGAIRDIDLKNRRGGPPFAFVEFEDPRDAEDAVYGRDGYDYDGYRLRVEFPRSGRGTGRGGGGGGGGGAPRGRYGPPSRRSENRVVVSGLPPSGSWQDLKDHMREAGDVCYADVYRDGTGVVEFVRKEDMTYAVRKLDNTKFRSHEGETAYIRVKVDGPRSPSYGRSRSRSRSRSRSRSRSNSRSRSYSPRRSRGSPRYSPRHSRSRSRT

In the case of Genomic HDV RNA, the Kd is reported as 40 nM.
